From patent publication US20240293553A1, “P-SELECTIN INHIBITORS AND USES THEREOF” (Beth Israel Deaconess Medical Center, Inc., priority 2021, published 2024)
Square brackets hold non-standard residues; d marks the D form. Ends that are not written are not given here. F∗ = phenylalanine sulfonate

Target: human P-selectin-Ig chimera (human) (UniProt P16109)
Assay: SPR (Biacore): biotinylated ligand on streptavidin chip, P-selectin-Ig flowed at 0.4-100 nM

human P-selectin-Ig chimera (human), sequence (P16109 42-771, change not shown): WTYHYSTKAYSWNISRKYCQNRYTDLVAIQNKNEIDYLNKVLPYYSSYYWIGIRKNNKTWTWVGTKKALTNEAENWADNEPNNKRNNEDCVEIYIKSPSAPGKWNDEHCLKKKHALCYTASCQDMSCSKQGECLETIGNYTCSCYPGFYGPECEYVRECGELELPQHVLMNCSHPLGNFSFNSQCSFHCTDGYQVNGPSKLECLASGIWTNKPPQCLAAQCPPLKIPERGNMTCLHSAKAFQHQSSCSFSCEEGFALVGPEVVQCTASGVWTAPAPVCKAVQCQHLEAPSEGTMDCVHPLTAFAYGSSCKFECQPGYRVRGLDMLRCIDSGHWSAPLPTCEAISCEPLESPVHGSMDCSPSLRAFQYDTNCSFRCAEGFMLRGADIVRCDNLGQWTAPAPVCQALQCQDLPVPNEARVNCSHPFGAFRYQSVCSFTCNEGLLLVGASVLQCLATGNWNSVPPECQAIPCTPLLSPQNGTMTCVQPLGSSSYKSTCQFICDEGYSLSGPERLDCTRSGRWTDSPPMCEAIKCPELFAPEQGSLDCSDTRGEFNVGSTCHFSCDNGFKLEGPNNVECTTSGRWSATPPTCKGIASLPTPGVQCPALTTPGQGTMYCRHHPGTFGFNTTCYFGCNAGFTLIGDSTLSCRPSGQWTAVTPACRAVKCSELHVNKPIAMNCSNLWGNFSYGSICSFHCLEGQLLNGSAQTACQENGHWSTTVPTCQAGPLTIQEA

B1: GSnP-6 (peptide)
peptide: KE[F∗]E[F∗]LD[F∗]DFLPET(Neu5Acα2‑3Galβ1‑4(Fucα1-3)GlcNAcβ1‑6(Galβ1-3)GalNAcα)EPL
In the case of B1, the Kd is reported as 27 nM.
